Test results taken from patent US20020031818A1, “Modification of Mdm2 activity” (priority 2000, published 2002).

Columns and labels:
[1] = biological target: T1, Ubc9 binding to Mdm2 (Homo sapiens, UniProt Q00987); experiment: In vitro binding of Ubc9 to GST-Mdm2; conditions: GST-Mdm2 phosphorylated by active p38 kinase
T1 construct: made in house; host or cells: GST-Mdm2: bacteria; Ubc9: in vitro translation
Experimental: FIGS. 17A and 17B. A. p19^ARF decreases Ubc9 binding to Mdm2. Bacterially expressed and purified GST-Mdm2 (1 μg) was incubated with ^35S-labeled in vitro translated p19^ARF and Ubc9 at the indicated ratios. After 30 min of incubation GSH beads bound-GST-Mdm2 were washed and separated on a 12% SDS-PAGE. Gel was dried and subjected to autoradiograph, depicting relative amounts of Ubc9 and p19^ARF bound to Mdm2. B. Bacterially expressed and purified GST-Mdm2 (1 μg) was phosphorylated by purified form of active p38 kinase as indicated. Phosphorylated or un-phosphorylated Mdm2 was incubated for 30 min with in vitro translated UbcH5b and Ubc9 (25 μl). Beads were washed and separated on a 12% SDS-PAGE. Gel was dried and exposed to X-ray film. Position of Ubc9 and UbcH5b is shown.
A prerequisite for Mdm2 sumoylation is the association of Ubc9, the SUMO conjugating enzyme, with Mdm2, which enables subsequent conjugation of SUMO-1 to Mdm2. Inhibition of Ubc9's association with Mdm2 attenuates Mdm2 sumoylation. Given the effect of p19^ARF on Mdm2 sumoylation, we proceeded to determine whether p19^ARF may alter Ubc9 binding to Mdm2. To this end we performed an in vitro binding assay, using in vitro translated p19^ARF and Ubc-9, as indicated. […] We next assessed possible changes in Ubc9 binding to Mdm2 upon its phosphorylation by p38.

[2] = biological target: T2, GST-Mdm2 (Homo sapiens, UniProt Q00987); experiment: In vitro conjugation of SUMO-1 to GST-Mdm2 (in vitro sumoylation); type: biochemical
T2 construct: made in house
T2 sequence (Q00987 whole entry): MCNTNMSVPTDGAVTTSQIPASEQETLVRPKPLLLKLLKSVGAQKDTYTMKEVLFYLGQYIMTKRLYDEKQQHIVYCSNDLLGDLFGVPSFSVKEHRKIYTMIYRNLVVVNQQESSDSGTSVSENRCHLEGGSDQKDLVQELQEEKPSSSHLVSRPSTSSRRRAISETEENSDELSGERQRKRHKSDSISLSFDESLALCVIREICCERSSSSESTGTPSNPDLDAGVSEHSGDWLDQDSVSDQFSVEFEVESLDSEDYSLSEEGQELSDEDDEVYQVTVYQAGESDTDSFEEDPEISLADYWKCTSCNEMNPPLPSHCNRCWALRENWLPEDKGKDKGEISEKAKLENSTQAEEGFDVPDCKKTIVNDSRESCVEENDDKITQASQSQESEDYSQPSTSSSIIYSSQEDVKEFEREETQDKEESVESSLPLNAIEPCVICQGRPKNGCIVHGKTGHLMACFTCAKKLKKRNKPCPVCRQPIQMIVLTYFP
Experimental: A. Time dependent Mdm2 sumoylation in vitro. Bacterially expressed and purified GST-Mdm2 was subjected to in vitro sumoylation reaction in the presence of E1, Ubc9, and ^35S-Sumos. Reaction was terminated after 10,30,50 or 60 minutes, Proteins were separated on 8% gel, Commassie stained, dryed and exposed overnight (upper panel). Lower panel depicts Commassie blue staining of Mdm2 forms. […] (Upper part) The specific Ubc-9-binding site peptide or a nonspecific peptide was added to the reaction for the indicated time periods. […] The lower panel depicts a Coomassie staining visualizing relative amounts of sumoylated and non-sumoylated forms of purified GST-Mdm2. C. The Mdm2 sumoylation assay was carried out in the presence of Ubc-9-binding site peptide (mu9bs) or a nonspecific peptide (mu9bs) which were added to the reaction at the indicated concentrations. […] Mdm2/p53 double null cells were transfected with Flag-tagged Mdm2, HA-tagged Sumo-1 and increasing amounts of the specific or nonspecific Ubc-9-peptides, respectively. Cells were harvested 36 h later and 500 μg of protein was immunoprecipitated using Mdm2 antibodies (2A10). Immunoprecipitated Mdm2 levels were detected using 2A10 antibodies (top). The same membrane was stripped and reprobed using monoclonal antibodies against Sumo-1 (Zymed, middle) to visualize the level of Sumo-1 conjugation to Mdm2 after Ubc-9-peptide expression.
A. Bacterially expressed and purified Mdm2 (1 μg) was incubated with ^32P-labeled Sumo-1, purified Aos1/Uba2 and Ubc9 (0.5 μg) for 60 min at 37° C. in conjugation buffer. For indicated time-periods in vitro translated wt or mutant p19^ARF (0.5 mg) was added to the sumoylation reactions. Upper panel depicts the amount of Sumoylated Mdm2, lower panel reveal the level of Mdm2 and Sumo-Mdm2 in Coomassie blue gel. B. Bacterially expressed and purified Mdm2 (1 μg) was incubated with in vitro-translated ^35S-Sumo, purified Aos1/Uba2 and Ubc9 (0.5 μg) for 60 min at 37° C. in conjugation buffer in the presence of the increasing amounts of bacculovirus-expressed p19^ARF (0, 0.1, 0.5, 1 μg; lanes 1-4 respectively). Bead-bound complexes were washed before being denatured in 3× Sample Buffer. Proteins were separated on 8% SDS-PAGE. Gel was stained with Coomassie blue to verify equal Mdm2 input (lower panel), dried and exposed to X-ray film, which depicts SUMO-1 conjugation to Mdm2 in the presence of the indicated p19 forms (upper panel). […] Double-null cells were transfected with Flag-tagged Mdm2 (1.5 μg), HA-tagged SUMO (1.5 μg) and p19 wt (1.5 μg). Cells were treated with MG132 (40 mM) for 5 h prior to protein preparation. […] (Left) Immunoprecipitated Mdm2 was detected using monoclonal Mdm2 antibodies (2A10, left). […]

[3] = biological target: T3, Ubc9 (Mus musculus, UniProt P63280); experiment: Co-immunoprecipitation of Ubc9 with HA-tagged peptide expressed in NIH 3T3 cells; type: cell-based; conditions: HA-tagged penetratin peptide vector, 36 h after transfection
T3 construct: endogenous in cells; host or cells: NIH 3T3
T3 sequence (P63280 whole entry): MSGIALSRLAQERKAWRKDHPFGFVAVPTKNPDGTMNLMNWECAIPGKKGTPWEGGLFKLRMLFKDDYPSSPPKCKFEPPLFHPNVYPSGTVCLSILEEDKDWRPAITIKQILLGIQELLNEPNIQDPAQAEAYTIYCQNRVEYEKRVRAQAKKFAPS
Experimental: (§1) FIGS. 9A and 9B. A. A peptide corresponding to aa 40-59 on Mdm2 binds Ubc9. mu9bs (Mdm2 Ubc9 binding site) corresponding to aa 40-59 of Mdm2 and its control scrambled counterpart peptide mu9sb (were immobilized on an AminoLink column [Pierce]). 50 μl of peptide-bound beads were incubated with 1 mg of cell lysates from EJ mouse fibroblast cells. Beads were washed extensively with 0.5M LiCl/TBS and eluates were separated on a 14% gel. B. Ubc9 binds to mu9bs in vivo. NIH 3T3 cells were transfected with wt or mutant Ubc9 binding site peptide. 36 h after transfection cells were lysed and lysates were immunoprecipitated with HA-antibodies directed against the HA-tag of transfected peptides. Upper panel depicts to Co-immunoprecipitation of Ubc9 with the wt but not the mutant peptide.
Vectors described in Example I were used in the present example. The sequence of the Ubc-9 binding domain on Mdm2 (aa 40-59, Mdm2 Ubc9 binding site; mu9bs) in wt or in a scrambled orientation (mu9sb) was cloned in frame between EcoRI and XhoI restriction sites into a pcDNA3 that carries the penetration sequence, followed by the sequence encoding the HA-tag. All Mdm2 mutants were cloned in pBluescipt KS. Mutant Ubc9C93S was a gift from Olli Jänne.
To further confirm the ability of the peptide corresponding to mu9bs to associate with Ubc9 we carried out in vivo reactions. […]

[4] = biological target: T4, Mdm2 (Homo sapiens, UniProt Q00987); experiment: In vivo sumoylation of Mdm2 in p53/Mdm2 double null cells; type: cell-based; conditions: p53/Mdm2 double null cells, Flag-Mdm2, HA-Sumo-1, increasing amounts of peptide, 36 h
T4 construct: expressed in transfected cells; host or cells: p53/Mdm2 double null cells
T4 sequence (Q00987 whole entry): as the sequence (Q00987 whole entry) above
Experimental: FIGS. 10A-10D. A. Time dependent Mdm2 sumoylation in vitro. Bacterially expressed and purified GST-Mdm2 was subjected to in vitro sumoylation reaction in the presence of E1, Ubc9, and ^35S-Sumos. Reaction was terminated after 10,30,50 or 60 minutes, Proteins were separated on 8% gel, Commassie stained, dryed and exposed overnight (upper panel). Lower panel depicts Commassie blue staining of Mdm2 forms. B. A peptide corresponding to the Ubc-9 binding site on Mdm2 decreases Mdm2 in vitro sumoylation of Mdm2 in a time-dependent manner. (Upper part) The specific Ubc-9-binding site peptide or a nonspecific peptide was added to the reaction for the indicated time periods. […] The lower panel depicts a Coomassie staining visualizing relative amounts of sumoylated and non-sumoylated forms of purified GST-Mdm2. C. The Mdm2 sumoylation assay was carried out in the presence of Ubc-9-binding site peptide (mu9bs) or a nonspecific peptide ([…]) which were added to the reaction at the indicated concentrations. […] D. A peptide corresponding to the Ubc-9 binding site on Mdm2 decreases Mdm2 sumoylation in vivo. […] Immunoprecipitated Mdm2 levels were detected using 2A10 antibodies (top). […]
FIG. 13A-13E. […] (Left) Immunoprecipitated Mdm2 was detected using monoclonal Mdm2 antibodies (2A10, left). […]

[5] = biological target: T3, Ubc9; experiment: Ubc9 capture by peptide immobilized on AminoLink column, Western blot; type: binding; conditions: peptide-bound beads incubated with cell lysates from EJ mouse fibroblast cells; Western blot with Ubc9 antibodies
Experimental: as §1
Immunobilization of peptides to an AminoLink® column (Pierce Biochemical) was carried out exactly according to the manufacturer's protocol. In brief, column was equilibrated with coupeling buffer and 1 column volume of solution containing 1 mg of peptide was incubated with gel for 6 h. Later column was drained and washed with coupeling buffer. […]
To further assess the role of the Ubc-9 binding domain in Mdm2 sumoylation, a peptide that corresponds to aa 40-59 of Mdm2 was synthesized. […] Beads coupled to the peptides were incubated with cell lysates and bound proteins were analyzed in Western blots using antibodies to Ubc9.

[6] = system: Mdm2 association with p53; experiment: p53 immunoprecipitation and immunoblot for bound Mdm2 form and p53 level in peptide-expressing cells; type: cell-based
Experimental: FIG. 11. Ubc9 binding affects the form of Mdm2 associated with p53. Mdm2/p53 double null cells were transfected with mu9sb or the wild type form mu9bs together with p53 and Mdm2. 36 h after transfection protein extracts were prepared and used for immunoprecipitation of p53 (using D01 antibodies). Immunoprecipitated material was analyzed via immunoblotting using antibodies to Mdm2, enabling to reveal the two major forms of Mdm2, indicated.
Therefore, we transfected human fibroblasts with mu9bs or mu9sb peptides. Immunoprecipitation of p53 was followed by Western blot analysis to determine the type and level of Mdm2 bound to p53 under each of these conditions.

T1 sequence (Q00987 whole entry): as above

Substance	Ubc9 binding to Mdm2 upon in vitro phosphorylation of Mdm2 [1]	Mdm2 sumoylation in vitro, increasing concentrations of peptide [2]	Mdm2 sumoylation in vitro, peptide added for different periods of time ([2]; peptide present 0-50 min of 60 min reaction)	association of expressed peptide with Ubc9 in vivo [3]	degree of Mdm2 sumoylation in vivo upon peptide co-expression [4]	capture of Ubc9 by column-coupled peptide [5]	overall level of p53 expression [6]	form of Mdm2 (75 kDa non-sumoylated / 90 kDa sumoylated) associated with p53 ([6]; peptide expression, p53 immunoprecipitation)
p38: purified active p38 kinase that phosphorylates Mdm2	marked decrease in Ubc9 binding to Mdm2	–	–	–	–	–	–	–
mu9bs: peptide that corresponds to aa 40-59 of Mdm2 (mdm2 Ubc9 binding site) (SVGAQKDTYTMKEVLFYLGQ)	–	dose-dependent decrease of Mdm2 sumoylation	sufficient to attenuate Mdm2 sumoylation in a manner that coincided with the length of the incubation	associated with Ubc9	dose-dependent decrease in the degree of Mdm2 sumoylation in vivo	captured Ubc9	increased level of p53	p53 association only with the non-sumoylated form of Mdm2
